Experiment [1] concerns the target voltage-gated sodium channel Nav1.3 (UniProt Q9NY46).
Experiment [2] concerns the target voltage-gated sodium channel Nav1.2 (UniProt Q99250).
Experiment [3] has as its target voltage-gated sodium channel Nav1.1 (UniProt P35498).
The target of experiment [4] is voltage-gated sodium channel Nav1.7 (UniProt Q15858).
The target in experiment [5] is voltage-gated sodium channel Nav1.4 (UniProt P35499).
Experiment [6] concerns the target voltage-gated sodium channel Nav1.6 (UniProt Q9UQD0).
The target in experiment [7] is voltage-gated sodium channel Nav1.5 (UniProt Q14524).
Experiment [8] has as its target voltage-gated sodium channel Nav1.7 (UniProt Q15858). The source holds these as a separate data set.
Experiment [9] concerns the target voltage-gated sodium channel Nav1.4 (UniProt P35499). The source holds these as a separate data set.

Tst3 toxin from Tityus stigmurus venom, sequence (P0C8X5 whole entry): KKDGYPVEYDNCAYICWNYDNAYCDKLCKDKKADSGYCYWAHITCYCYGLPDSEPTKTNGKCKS
voltage-gated sodium channel Nav1.4, sequence (P35499 whole entry): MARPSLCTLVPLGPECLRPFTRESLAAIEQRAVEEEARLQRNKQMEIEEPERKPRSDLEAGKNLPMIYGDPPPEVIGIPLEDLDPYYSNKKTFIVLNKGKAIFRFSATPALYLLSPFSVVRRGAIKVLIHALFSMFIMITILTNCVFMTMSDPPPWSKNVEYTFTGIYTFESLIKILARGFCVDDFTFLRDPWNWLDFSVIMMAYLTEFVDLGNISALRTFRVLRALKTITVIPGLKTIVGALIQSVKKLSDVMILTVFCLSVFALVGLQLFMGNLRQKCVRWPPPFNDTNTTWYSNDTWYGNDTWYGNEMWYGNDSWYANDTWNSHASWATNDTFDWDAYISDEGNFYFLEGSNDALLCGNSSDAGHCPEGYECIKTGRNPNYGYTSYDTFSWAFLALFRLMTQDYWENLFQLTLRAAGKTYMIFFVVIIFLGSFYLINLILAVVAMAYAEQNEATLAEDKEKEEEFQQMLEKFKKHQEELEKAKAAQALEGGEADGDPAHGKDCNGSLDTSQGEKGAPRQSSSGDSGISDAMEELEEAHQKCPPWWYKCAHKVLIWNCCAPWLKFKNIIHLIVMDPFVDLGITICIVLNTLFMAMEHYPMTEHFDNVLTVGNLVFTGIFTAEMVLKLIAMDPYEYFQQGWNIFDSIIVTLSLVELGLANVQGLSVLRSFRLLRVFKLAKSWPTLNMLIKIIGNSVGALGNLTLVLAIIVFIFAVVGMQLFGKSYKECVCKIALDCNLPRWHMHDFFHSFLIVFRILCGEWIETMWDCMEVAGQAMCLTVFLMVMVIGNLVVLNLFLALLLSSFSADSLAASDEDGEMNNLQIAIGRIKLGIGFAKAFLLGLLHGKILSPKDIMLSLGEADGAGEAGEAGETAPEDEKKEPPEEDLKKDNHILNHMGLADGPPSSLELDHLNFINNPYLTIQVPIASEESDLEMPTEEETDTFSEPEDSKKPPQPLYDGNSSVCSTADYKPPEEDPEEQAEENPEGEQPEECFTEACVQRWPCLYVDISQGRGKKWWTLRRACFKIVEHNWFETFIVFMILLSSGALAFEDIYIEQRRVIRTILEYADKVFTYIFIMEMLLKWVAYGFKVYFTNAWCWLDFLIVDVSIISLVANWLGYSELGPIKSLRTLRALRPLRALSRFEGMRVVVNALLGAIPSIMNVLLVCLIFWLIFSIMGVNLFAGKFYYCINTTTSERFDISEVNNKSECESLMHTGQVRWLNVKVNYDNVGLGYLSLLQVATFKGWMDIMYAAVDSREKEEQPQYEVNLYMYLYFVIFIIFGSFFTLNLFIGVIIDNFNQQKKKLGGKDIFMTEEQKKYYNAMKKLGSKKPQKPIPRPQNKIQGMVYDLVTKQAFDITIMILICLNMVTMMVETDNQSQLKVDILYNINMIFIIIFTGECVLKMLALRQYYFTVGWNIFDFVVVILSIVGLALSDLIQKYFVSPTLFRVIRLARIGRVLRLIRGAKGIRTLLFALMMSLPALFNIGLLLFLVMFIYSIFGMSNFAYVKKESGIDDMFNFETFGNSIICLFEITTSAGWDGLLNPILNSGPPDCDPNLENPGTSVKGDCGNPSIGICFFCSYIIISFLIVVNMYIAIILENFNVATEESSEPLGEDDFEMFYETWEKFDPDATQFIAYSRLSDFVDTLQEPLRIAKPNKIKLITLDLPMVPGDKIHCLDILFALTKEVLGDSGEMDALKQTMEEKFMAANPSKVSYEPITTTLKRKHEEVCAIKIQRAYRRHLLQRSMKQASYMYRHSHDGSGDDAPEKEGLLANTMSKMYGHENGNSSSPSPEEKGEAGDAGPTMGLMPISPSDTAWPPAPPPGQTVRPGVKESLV
voltage-gated sodium channel Nav1.7, sequence (Q15858 whole entry): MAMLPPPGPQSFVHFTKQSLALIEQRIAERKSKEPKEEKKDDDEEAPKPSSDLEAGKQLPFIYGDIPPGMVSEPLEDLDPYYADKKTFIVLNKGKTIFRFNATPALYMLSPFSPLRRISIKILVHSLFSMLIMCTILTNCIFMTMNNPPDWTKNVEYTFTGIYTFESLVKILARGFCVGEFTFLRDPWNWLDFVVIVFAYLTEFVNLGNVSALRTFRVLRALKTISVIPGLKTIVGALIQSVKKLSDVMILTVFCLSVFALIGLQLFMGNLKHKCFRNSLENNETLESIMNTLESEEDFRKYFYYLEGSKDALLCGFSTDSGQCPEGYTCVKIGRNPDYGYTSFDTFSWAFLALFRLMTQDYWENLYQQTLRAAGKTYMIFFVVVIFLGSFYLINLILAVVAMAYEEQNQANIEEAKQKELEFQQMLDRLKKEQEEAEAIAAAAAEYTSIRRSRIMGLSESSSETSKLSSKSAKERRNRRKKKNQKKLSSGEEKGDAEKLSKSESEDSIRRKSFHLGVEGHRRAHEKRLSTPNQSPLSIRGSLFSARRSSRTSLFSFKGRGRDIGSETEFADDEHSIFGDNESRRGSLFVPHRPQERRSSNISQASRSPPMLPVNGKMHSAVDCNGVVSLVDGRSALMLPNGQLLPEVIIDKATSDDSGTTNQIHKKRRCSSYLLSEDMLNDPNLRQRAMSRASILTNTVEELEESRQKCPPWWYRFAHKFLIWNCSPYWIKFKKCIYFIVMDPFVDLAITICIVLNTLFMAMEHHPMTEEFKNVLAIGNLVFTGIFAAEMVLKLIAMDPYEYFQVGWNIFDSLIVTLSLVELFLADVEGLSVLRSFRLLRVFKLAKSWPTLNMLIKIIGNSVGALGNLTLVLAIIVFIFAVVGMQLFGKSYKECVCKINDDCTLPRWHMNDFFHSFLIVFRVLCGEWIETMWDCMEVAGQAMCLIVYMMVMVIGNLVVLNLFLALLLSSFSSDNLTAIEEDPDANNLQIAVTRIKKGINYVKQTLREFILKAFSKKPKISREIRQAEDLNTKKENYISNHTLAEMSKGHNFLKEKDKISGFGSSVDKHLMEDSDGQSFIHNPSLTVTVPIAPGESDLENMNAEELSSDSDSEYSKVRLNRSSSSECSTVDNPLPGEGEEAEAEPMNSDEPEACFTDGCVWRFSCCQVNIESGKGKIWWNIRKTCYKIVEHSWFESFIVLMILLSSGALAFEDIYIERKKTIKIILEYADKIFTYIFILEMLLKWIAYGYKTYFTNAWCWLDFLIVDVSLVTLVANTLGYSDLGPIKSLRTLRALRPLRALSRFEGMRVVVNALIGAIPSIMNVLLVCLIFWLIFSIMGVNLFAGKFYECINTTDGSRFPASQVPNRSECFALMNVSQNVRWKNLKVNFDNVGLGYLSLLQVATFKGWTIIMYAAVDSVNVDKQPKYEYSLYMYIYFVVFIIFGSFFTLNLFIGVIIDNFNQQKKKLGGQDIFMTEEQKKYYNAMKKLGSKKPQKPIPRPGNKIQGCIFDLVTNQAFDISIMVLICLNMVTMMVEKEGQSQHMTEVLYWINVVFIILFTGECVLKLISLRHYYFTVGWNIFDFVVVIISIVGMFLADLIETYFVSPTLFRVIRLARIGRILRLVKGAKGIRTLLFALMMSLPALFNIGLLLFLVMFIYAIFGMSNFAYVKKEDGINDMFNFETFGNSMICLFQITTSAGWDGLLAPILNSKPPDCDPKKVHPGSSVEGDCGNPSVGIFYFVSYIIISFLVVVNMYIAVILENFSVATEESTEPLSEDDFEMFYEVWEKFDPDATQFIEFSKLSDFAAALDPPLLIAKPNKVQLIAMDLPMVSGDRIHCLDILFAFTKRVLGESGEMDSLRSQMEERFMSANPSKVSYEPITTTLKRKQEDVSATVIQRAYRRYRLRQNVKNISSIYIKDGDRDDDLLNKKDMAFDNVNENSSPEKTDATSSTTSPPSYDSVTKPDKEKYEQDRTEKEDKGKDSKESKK

Regarding “Tst3 toxin from Tityus stigmurus venom (from UniProt P0C8X5 1-64) (natural protein)”, in experiment [1], the increase of the fast inactivation time constant (Δτ) of Nav1.3, whole-cell patch clamp, 200 nM Tst3 was 6.87 ms and the shift of the half-maximal activation voltage (ΔV1/2) of Nav1.3, whole-cell patch clamp, 200 nM Tst3 is -8.68 mV. Further, in [2], the increase of the fast inactivation time constant (Δτ) of Nav1.2, whole-cell patch clamp, 200 nM Tst3 was determined as 9.17 ms and the shift of the half-maximal activation voltage (ΔV1/2) of Nav1.2, whole-cell patch clamp, 200 nM Tst3 was -9.02 mV. For the same substance, in [3], the increase of the fast inactivation time constant (Δτ) of Nav1.1, whole-cell patch clamp, 200 nM Tst3 turned out to be 5.71 ms and the shift of the half-maximal activation voltage (ΔV1/2) of Nav1.1, whole-cell patch clamp, 200 nM Tst3 was -7.15 mV. In experiment [4], the increase of the fast inactivation time constant (Δτ) of Nav1.7, activation protocol of the isoform screen, whole-cell patch clamp, 200 nM Tst3 came out at 18.8 ms and the shift of the half-maximal activation voltage (ΔV1/2) of Nav1.7, whole-cell patch clamp, 200 nM Tst3 is -8.55 mV. In addition, the increase of the fast inactivation time constant (Δτ) of Nav1.4, activation protocol of the isoform screen, whole-cell patch clamp, 200 nM Tst3 in experiment [5] worked out at 5.61 ms. For the same substance, in experiment [6], the increase of the fast inactivation time constant (Δτ) of Nav1.6, whole-cell patch clamp, 200 nM Tst3 came to 6.37 ms and the shift of the half-maximal activation voltage (ΔV1/2) of Nav1.6, whole-cell patch clamp, 200 nM Tst3 was -3.82 mV. For the same substance, in [7], the increase of the fast inactivation time constant (Δτ) of Nav1.5, whole-cell patch clamp, 200 nM Tst3 came out at 13.2 ms and the shift of the half-maximal activation voltage (ΔV1/2) of Nav1.5, whole-cell patch clamp, 200 nM Tst3 is -8.66 mV. The substance further displayed a delay of fast inactivation of Nav1.7 currents recorded at 0 mV, whole-cell patch clamp, 200 nM Tst3 in experiment [8] of 12.6 ms. In [9], the increase of the fast inactivation time constant (Δτ) of Nav1.4 currents recorded at 0 mV, two-step protocol of the Tst3/Ts3 comparison, whole-cell patch clamp, 200 nM Tst3 came to 6.09 ms; the increase of the persistent current (ΔIPers) of Nav1.4, whole-cell patch clamp, 200 nM Tst3 turned out to be 4.4%; the shift of the half-maximal activation voltage (ΔV1/2) of Nav1.4, whole-cell patch clamp, 200 nM Tst3 was -5.19 mV; the shift of the half-maximal steady-state inactivation voltage (ΔV1/2h) of Nav1.4, whole-cell patch clamp, 200 nM Tst3 was 1.22 mV.
In experiment [8], “Ts3 toxin from Tityus serrulatus venom (natural protein)” had a delay of fast inactivation of Nav1.7 currents recorded at 0 mV, whole-cell patch clamp, 200 nM Ts3 of 9.37 ms. Further, in [9], the increase of the fast inactivation time constant (Δτ) of Nav1.4 currents recorded at 0 mV, whole-cell patch clamp, 200 nM Ts3 was found to be 4.82 ms; the increase of the persistent current (ΔIPers) of Nav1.4, whole-cell patch clamp, 200 nM Ts3 was 3.1%; the shift of the half-maximal activation voltage (ΔV1/2) of Nav1.4, whole-cell patch clamp, 200 nM Ts3 was -4.15 mV; the shift of the half-maximal steady-state inactivation voltage (ΔV1/2h) of Nav1.4, whole-cell patch clamp, 200 nM Ts3 stood at 2.03 mV.

The record behind these values is paper PMC11209618.
